Experimental data published in the Human Domainome abundance scans (Beltran et al. 2025).
± gives the uncertainty stated by the source.

Experiment: abundance fitness (aPCA) (normalised: wild type 0, dead -1); higher = more abundant; growth selection in yeast, the domain comes from the species named
Settings: Saccharomyces cerevisiae (strain ATCC 204508 / S288c)

## E3 ubiquitin-protein ligase RSP5 T342G, P39940
  abundance fitness: -0.255 ± 0.045

## E3 ubiquitin-protein ligase RSP5 T342H, P39940
  abundance fitness: -0.455 ± 0.3

## E3 ubiquitin-protein ligase RSP5 T342K, P39940
  abundance fitness: -0.824 ± 0.058

## E3 ubiquitin-protein ligase RSP5 T342L, P39940
  abundance fitness: -0.074 ± 0.065

## E3 ubiquitin-protein ligase RSP5 T342M, P39940
  abundance fitness: -0.327 ± 0.17

## E3 ubiquitin-protein ligase RSP5 T342N, P39940
  abundance fitness: -0.225 ± 0.13

## E3 ubiquitin-protein ligase RSP5 T342P, P39940
  abundance fitness: -0.556 ± 0.074

## E3 ubiquitin-protein ligase RSP5 T342Q, P39940
  abundance fitness: -0.226 ± 0.067

## E3 ubiquitin-protein ligase RSP5 T342R, P39940
  abundance fitness: -0.738 ± 0.044

## E3 ubiquitin-protein ligase RSP5 T342V, P39940
  abundance fitness: -0.315 ± 0.047

## E3 ubiquitin-protein ligase RSP5 T342W, P39940
  abundance fitness: -0.865 ± 0.054

## E3 ubiquitin-protein ligase RSP5 T354A, P39940
  abundance fitness: -0.152 ± 0.052

## E3 ubiquitin-protein ligase RSP5 T354C, P39940
  abundance fitness: -0.196 ± 0.088

## E3 ubiquitin-protein ligase RSP5 T354E, P39940
  abundance fitness: -0.163 ± 0.054

## E3 ubiquitin-protein ligase RSP5 T354F, P39940
  abundance fitness: -0.374 ± 0.093

## E3 ubiquitin-protein ligase RSP5 T354G, P39940
  abundance fitness: -0.223 ± 0.043

## E3 ubiquitin-protein ligase RSP5 T354H, P39940
  abundance fitness: 0.187 ± 0.14

## E3 ubiquitin-protein ligase RSP5 T354K, P39940
  abundance fitness: -0.147 ± 0.082

## E3 ubiquitin-protein ligase RSP5 T354L, P39940
  abundance fitness: -0.266 ± 0.049

## E3 ubiquitin-protein ligase RSP5 T354P, P39940
  abundance fitness: -1.07 ± 0.078

## E3 ubiquitin-protein ligase RSP5 T354Q, P39940
  abundance fitness: -0.165 ± 0.056

## E3 ubiquitin-protein ligase RSP5 T354R, P39940
  abundance fitness: -0.219 ± 0.044

## E3 ubiquitin-protein ligase RSP5 T354S, P39940
  abundance fitness: -0.049 ± 0.049

## E3 ubiquitin-protein ligase RSP5 T354V, P39940
  abundance fitness: -0.445 ± 0.043

## E3 ubiquitin-protein ligase RSP5 T354W, P39940
  abundance fitness: -0.658 ± 0.065

## E3 ubiquitin-protein ligase RSP5 T356A, P39940
  abundance fitness: -0.237 ± 0.048

## E3 ubiquitin-protein ligase RSP5 T356C, P39940
  abundance fitness: 0.032 ± 0.064

## E3 ubiquitin-protein ligase RSP5 T356D, P39940
  abundance fitness: -0.405 ± 0.08

## E3 ubiquitin-protein ligase RSP5 T356E, P39940
  abundance fitness: -0.3 ± 0.054

## E3 ubiquitin-protein ligase RSP5 T356G, P39940
  abundance fitness: -0.465 ± 0.044

## E3 ubiquitin-protein ligase RSP5 T356H, P39940
  abundance fitness: -0.483 ± 0.23

## E3 ubiquitin-protein ligase RSP5 T356I, P39940
  abundance fitness: 0.404 ± 0.26

## E3 ubiquitin-protein ligase RSP5 T356K, P39940
  abundance fitness: -0.225 ± 0.066

## E3 ubiquitin-protein ligase RSP5 T356L, P39940
  abundance fitness: -0.143 ± 0.047

## E3 ubiquitin-protein ligase RSP5 T356M, P39940
  abundance fitness: -0.005 ± 0.066

## E3 ubiquitin-protein ligase RSP5 T356N, P39940
  abundance fitness: -0.285 ± 0.18

## E3 ubiquitin-protein ligase RSP5 T356P, P39940
  abundance fitness: -0.96 ± 0.069

## E3 ubiquitin-protein ligase RSP5 T356Q, P39940
  abundance fitness: -0.121 ± 0.05

## E3 ubiquitin-protein ligase RSP5 T356R, P39940
  abundance fitness: -0.32 ± 0.042

## E3 ubiquitin-protein ligase RSP5 T356S, P39940
  abundance fitness: 0.034 ± 0.05

## E3 ubiquitin-protein ligase RSP5 T356V, P39940
  abundance fitness: -0.124 ± 0.052

## E3 ubiquitin-protein ligase RSP5 T356Y, P39940
  abundance fitness: -0.381 ± 0.12

## E3 ubiquitin-protein ligase RSP5 T357A, P39940
  abundance fitness: -0.304 ± 0.048

## E3 ubiquitin-protein ligase RSP5 T357C, P39940
  abundance fitness: -0.142 ± 0.065

## E3 ubiquitin-protein ligase RSP5 T357D, P39940
  abundance fitness: -0.711 ± 0.06

## E3 ubiquitin-protein ligase RSP5 T357E, P39940
  abundance fitness: -0.477 ± 0.058

## E3 ubiquitin-protein ligase RSP5 T357F, P39940
  abundance fitness: -1.11 ± 0.28

## E3 ubiquitin-protein ligase RSP5 T357G, P39940
  abundance fitness: -0.81 ± 0.047

## E3 ubiquitin-protein ligase RSP5 T357H, P39940
  abundance fitness: -0.578 ± 0.16

## E3 ubiquitin-protein ligase RSP5 T357I, P39940
  abundance fitness: -0.735 ± 0.17

## E3 ubiquitin-protein ligase RSP5 T357K, P39940
  abundance fitness: -0.393 ± 0.069

## E3 ubiquitin-protein ligase RSP5 T357L, P39940
  abundance fitness: -0.488 ± 0.08

## E3 ubiquitin-protein ligase RSP5 T357M, P39940
  abundance fitness: -0.33 ± 0.094

## E3 ubiquitin-protein ligase RSP5 T357P, P39940
  abundance fitness: -0.77 ± 0.073

## E3 ubiquitin-protein ligase RSP5 T357Q, P39940
  abundance fitness: -0.441 ± 0.07

## E3 ubiquitin-protein ligase RSP5 T357S, P39940
  abundance fitness: -0.1 ± 0.062

## E3 ubiquitin-protein ligase RSP5 T357V, P39940
  abundance fitness: -0.247 ± 0.059

## E3 ubiquitin-protein ligase RSP5 T357W, P39940
  abundance fitness: -0.695 ± 0.061

## E3 ubiquitin-protein ligase RSP5 T357Y, P39940
  abundance fitness: -0.955 ± 0.31

## E3 ubiquitin-protein ligase RSP5 T358D, P39940
  abundance fitness: -0.659 ± 0.091

## E3 ubiquitin-protein ligase RSP5 T358E, P39940
  abundance fitness: -0.761 ± 0.051

## E3 ubiquitin-protein ligase RSP5 T358G, P39940
  abundance fitness: -0.535 ± 0.044

## E3 ubiquitin-protein ligase RSP5 T358H, P39940
  abundance fitness: -0.411 ± 0.076

## E3 ubiquitin-protein ligase RSP5 T358I, P39940
  abundance fitness: -1.07 ± 0.38

## E3 ubiquitin-protein ligase RSP5 T358K, P39940
  abundance fitness: -0.658 ± 0.12

## E3 ubiquitin-protein ligase RSP5 T358L, P39940
  abundance fitness: -0.886 ± 0.063

## E3 ubiquitin-protein ligase RSP5 T358N, P39940
  abundance fitness: -0.767 ± 0.12

## E3 ubiquitin-protein ligase RSP5 T358P, P39940
  abundance fitness: -0.955 ± 0.067

## E3 ubiquitin-protein ligase RSP5 T358Q, P39940
  abundance fitness: -0.326 ± 0.057

## E3 ubiquitin-protein ligase RSP5 T358R, P39940
  abundance fitness: -0.781 ± 0.046

## E3 ubiquitin-protein ligase RSP5 T358S, P39940
  abundance fitness: -0.028 ± 0.058

## E3 ubiquitin-protein ligase RSP5 T358V, P39940
  abundance fitness: -0.729 ± 0.071

## E3 ubiquitin-protein ligase RSP5 T358W, P39940
  abundance fitness: -0.626 ± 0.064

## E3 ubiquitin-protein ligase RSP5 T358Y, P39940
  abundance fitness: -0.633 ± 0.12

## E3 ubiquitin-protein ligase RSP5 V350A, P39940
  abundance fitness: -0.275 ± 0.043

## E3 ubiquitin-protein ligase RSP5 V350C, P39940
  abundance fitness: -0.097 ± 0.066

## E3 ubiquitin-protein ligase RSP5 V350D, P39940
  abundance fitness: -0.604 ± 0.11

## E3 ubiquitin-protein ligase RSP5 V350E, P39940
  abundance fitness: -0.346 ± 0.057

## E3 ubiquitin-protein ligase RSP5 V350F, P39940
  abundance fitness: 0.044 ± 0.13

## E3 ubiquitin-protein ligase RSP5 V350G, P39940
  abundance fitness: -0.891 ± 0.046

## E3 ubiquitin-protein ligase RSP5 V350K, P39940
  abundance fitness: -0.537 ± 0.065

## E3 ubiquitin-protein ligase RSP5 V350L, P39940
  abundance fitness: 0.028 ± 0.048

## E3 ubiquitin-protein ligase RSP5 V350M, P39940
  abundance fitness: 0.109 ± 0.085

## E3 ubiquitin-protein ligase RSP5 V350N, P39940
  abundance fitness: -0.49 ± 0.095

## E3 ubiquitin-protein ligase RSP5 V350Q, P39940
  abundance fitness: -0.295 ± 0.066

## E3 ubiquitin-protein ligase RSP5 V350R, P39940
  abundance fitness: -0.546 ± 0.042

## E3 ubiquitin-protein ligase RSP5 V350S, P39940
  abundance fitness: -0.502 ± 0.078

## E3 ubiquitin-protein ligase RSP5 V350W, P39940
  abundance fitness: -0.359 ± 0.057

## E3 ubiquitin-protein ligase RSP5 V350Y, P39940
  abundance fitness: -0.136 ± 0.14

## E3 ubiquitin-protein ligase RSP5 V360A, P39940
  abundance fitness: -0.161 ± 0.046

## E3 ubiquitin-protein ligase RSP5 V360C, P39940
  abundance fitness: -0.018 ± 0.062

## E3 ubiquitin-protein ligase RSP5 V360D, P39940
  abundance fitness: -0.098 ± 0.056

## E3 ubiquitin-protein ligase RSP5 V360E, P39940
  abundance fitness: -0.154 ± 0.053

## E3 ubiquitin-protein ligase RSP5 V360F, P39940
  abundance fitness: 0.058 ± 0.11

## E3 ubiquitin-protein ligase RSP5 V360H, P39940
  abundance fitness: 0.043 ± 0.059

## E3 ubiquitin-protein ligase RSP5 V360I, P39940
  abundance fitness: 0.186 ± 0.1

## E3 ubiquitin-protein ligase RSP5 V360L, P39940
  abundance fitness: -0.03 ± 0.044

## E3 ubiquitin-protein ligase RSP5 V360M, P39940
  abundance fitness: 0.022 ± 0.062

## E3 ubiquitin-protein ligase RSP5 V360N, P39940
  abundance fitness: 0.014 ± 0.093

## E3 ubiquitin-protein ligase RSP5 V360P, P39940
  abundance fitness: -0.871 ± 0.061

## E3 ubiquitin-protein ligase RSP5 V360Q, P39940
  abundance fitness: -0.184 ± 0.15

## E3 ubiquitin-protein ligase RSP5 V360R, P39940
  abundance fitness: -0.207 ± 0.041

## E3 ubiquitin-protein ligase RSP5 V360T, P39940
  abundance fitness: -0.095 ± 0.064
